Experiments:
[1] = molecular target: T1, human insulin receptor (IR) (Homo sapiens, UniProt P06213); assay: displacement of 125I-human insulin from human insulin receptor; affinity relative to human insulin
Target sequence in this assay (P06213 other isoform, or with tags, fused parts or gaps limits assumed, form in doubt): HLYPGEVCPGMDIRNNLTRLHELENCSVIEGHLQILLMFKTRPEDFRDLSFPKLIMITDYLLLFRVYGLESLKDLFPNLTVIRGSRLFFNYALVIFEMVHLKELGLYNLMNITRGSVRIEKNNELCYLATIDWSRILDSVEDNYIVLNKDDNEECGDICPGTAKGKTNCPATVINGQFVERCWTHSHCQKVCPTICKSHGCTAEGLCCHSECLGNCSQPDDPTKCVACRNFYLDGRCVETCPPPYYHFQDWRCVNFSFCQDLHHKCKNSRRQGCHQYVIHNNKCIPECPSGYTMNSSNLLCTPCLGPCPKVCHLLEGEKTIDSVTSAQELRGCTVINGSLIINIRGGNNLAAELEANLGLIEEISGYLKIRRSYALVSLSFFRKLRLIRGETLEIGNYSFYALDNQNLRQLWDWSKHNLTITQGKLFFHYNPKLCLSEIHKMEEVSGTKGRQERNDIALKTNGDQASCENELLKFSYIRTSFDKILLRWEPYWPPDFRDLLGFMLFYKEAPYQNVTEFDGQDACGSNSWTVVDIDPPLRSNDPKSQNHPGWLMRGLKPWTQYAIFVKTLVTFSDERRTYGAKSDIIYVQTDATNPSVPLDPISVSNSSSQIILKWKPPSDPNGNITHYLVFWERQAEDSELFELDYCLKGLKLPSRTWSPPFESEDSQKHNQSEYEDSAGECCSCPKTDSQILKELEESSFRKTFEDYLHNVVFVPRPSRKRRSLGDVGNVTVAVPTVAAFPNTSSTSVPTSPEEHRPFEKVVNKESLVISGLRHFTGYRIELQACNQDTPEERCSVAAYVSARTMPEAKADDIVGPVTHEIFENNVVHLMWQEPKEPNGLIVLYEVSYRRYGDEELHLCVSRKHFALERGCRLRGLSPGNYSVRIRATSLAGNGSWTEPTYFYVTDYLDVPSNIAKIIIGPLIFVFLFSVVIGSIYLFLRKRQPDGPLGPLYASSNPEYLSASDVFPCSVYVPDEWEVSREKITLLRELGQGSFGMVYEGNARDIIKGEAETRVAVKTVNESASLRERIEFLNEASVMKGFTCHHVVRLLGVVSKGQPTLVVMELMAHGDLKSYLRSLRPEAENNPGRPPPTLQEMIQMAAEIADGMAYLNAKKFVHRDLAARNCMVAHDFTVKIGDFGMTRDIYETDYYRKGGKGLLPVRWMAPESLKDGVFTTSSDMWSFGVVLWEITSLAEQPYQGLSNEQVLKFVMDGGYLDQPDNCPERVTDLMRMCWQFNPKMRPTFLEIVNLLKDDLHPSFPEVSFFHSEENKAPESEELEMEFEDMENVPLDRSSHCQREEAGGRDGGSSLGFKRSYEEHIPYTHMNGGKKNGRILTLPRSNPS

[2] = molecular target: T1, human insulin receptor (IR); assay: Binding affinity to the human insulin receptor relative to human insulin (SPA antibody capture assay); settings: binding affinity to the human insulin receptor relative to that of human insulin
Description: The PEGylated single-chain insulins were tested for biological insulin activity as measured by binding affinity to the human insulin receptor (IR) relative to that of human insulin as described below.
Insulin receptor binding of the PEGylated single-chain insulins of the invention.
The affinity of the PEGylated, single-chain insulins the invention for the human insulin receptor is determined by a SPA assay (Scintillation Proximity Assay) microtiterplate antibody capture assay. SPA-PVT antibody-binding beads, anti-mouse reagent (Amersham Biosciences, Cat No. PRNQ0017) are mixed with 25 ml of binding buffer (100 mM HEPES pH 7.8; 100 mM sodium chloride, 10 mM MgSO4, 0.025% Tween-20). Reagent mix for a single Packard Optiplate (Packard No. 6005190) is composed of 2.4 μl of a 1:5000 diluted purified recombinant human insulin receptor—exon 11, an amount of a stock solution of A14 Tyr[125I]-human insulin corresponding to 5000 cpm per 100 μl of reagent mix, 12 μl of a 1:1000 dilution of F12 antibody, 3 ml of SPA-beads and binding buffer to a total of 12 ml. A total of 100 μl is then added and a dilution series is made from appropriate samples. To the dilution series is then added 100 μl of reagent mix and the samples were incubated for 16 hours while gently shaken. The phases are then separated by centrifugation for 1 min and the plates counted in a Topcounter. The binding data are fitted using the nonlinear regression algorithm in the GraphPad Prism 2.01 (GraphPad Software, San Diego, Calif.).
Target sequence in this assay (P06213 28-746 isoform P06213-2 limits assumed): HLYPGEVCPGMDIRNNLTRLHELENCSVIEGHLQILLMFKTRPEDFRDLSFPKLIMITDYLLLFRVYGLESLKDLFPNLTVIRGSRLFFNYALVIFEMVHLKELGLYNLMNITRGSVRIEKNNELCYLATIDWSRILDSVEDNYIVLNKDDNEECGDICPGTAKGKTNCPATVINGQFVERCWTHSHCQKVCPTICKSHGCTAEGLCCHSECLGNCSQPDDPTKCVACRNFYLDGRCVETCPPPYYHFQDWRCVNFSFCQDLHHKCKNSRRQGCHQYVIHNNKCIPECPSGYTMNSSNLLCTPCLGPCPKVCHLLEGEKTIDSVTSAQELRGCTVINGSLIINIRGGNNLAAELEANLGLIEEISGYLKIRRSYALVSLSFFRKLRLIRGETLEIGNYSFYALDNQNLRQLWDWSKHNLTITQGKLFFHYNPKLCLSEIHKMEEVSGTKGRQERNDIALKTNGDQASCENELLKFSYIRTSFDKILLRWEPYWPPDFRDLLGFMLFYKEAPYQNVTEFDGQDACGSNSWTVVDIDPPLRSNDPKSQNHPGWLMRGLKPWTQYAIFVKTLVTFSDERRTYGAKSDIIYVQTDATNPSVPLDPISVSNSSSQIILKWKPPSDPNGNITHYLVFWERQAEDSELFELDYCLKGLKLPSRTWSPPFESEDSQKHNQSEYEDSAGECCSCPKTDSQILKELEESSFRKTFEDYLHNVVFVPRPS
Target sequence in this assay (P06213 763-1382 partner limits assumed): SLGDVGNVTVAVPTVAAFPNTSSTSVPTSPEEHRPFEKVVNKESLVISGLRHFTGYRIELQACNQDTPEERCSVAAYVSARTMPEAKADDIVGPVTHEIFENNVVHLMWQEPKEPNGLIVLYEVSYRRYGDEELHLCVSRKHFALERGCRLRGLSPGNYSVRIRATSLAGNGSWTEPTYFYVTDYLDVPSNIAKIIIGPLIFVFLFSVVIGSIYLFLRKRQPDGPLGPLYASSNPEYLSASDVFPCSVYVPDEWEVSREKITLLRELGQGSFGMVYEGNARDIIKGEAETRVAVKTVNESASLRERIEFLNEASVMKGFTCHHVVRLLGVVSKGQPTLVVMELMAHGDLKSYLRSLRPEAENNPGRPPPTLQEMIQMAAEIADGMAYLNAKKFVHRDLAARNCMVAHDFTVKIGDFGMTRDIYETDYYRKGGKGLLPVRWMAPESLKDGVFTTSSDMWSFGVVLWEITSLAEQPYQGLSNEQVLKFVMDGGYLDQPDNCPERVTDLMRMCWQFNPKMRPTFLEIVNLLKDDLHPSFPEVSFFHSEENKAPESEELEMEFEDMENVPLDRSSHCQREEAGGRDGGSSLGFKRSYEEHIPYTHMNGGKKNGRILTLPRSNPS

Row | Substance | IR binding in percent of human insulin [1] | IR binding in percent of human insulin [2]
1 | B(1-29)-B1(N^α-3-(mPEG2000-yl)propionyl)-B29A-VGLSSGQ-A(1-21)-A18Q Human Insulin (from UniProt P01308 25-53; P01308 90-110) (ligand) | 8.1% | 
2 | B(1-29)-B1(N^α-3-(mPEG2000-yl)propionyl)-B29A-VGLSSGQ-A(1-21)-A18Q Human Insulin [Example 8] |  | 8.1%
3 | B(1-29)-B3K(N^ε-3-(mPEG2000-yl)propionyl)-B29A-VGLSSGQ-A(1-21)-A18Q Human Insulin (from UniProt P01308 25-53; P01308 90-110) (ligand) | 4.5% | 
4 | B(1-29)-B3K(N^ε-3-(mPEG2000-yl)propionyl)-B29A-VGLSSGQ-A(1-21)-A18Q Human Insulin [Example 7] |  | 4.5%
5 | B(1-29)-B3Q-B29R-TGLGK(N^ε-3-(mPEG2000-yl)propionyl)GQ-A(1-21)-A18Q-A21G Human Insulin (from UniProt P01308 25-53; P01308 90-110) (ligand) | 6.8% | 
6 | B(1-29)-B3Q-B29R-TGLGK(N^ε-3-(mPEG2000-yl)propionyl)GQ-A(1-21)-A18Q-A21G Human Insulin [Example 1] |  | 6.8%
7 | B(1-29)-B22K(N^ε-3-(mPEG2000-yl)propionyl)-B29A-A18Q-VGLSSGQ-A(1-21) Human Insulin (from UniProt P01308 25-53; P01308 90-110) (ligand) | 19.7% | 
8 | B(1-29)-B22K(N^ε-3-(mPEG2000-yl)propionyl)-B29A-A18Q-VGLSSGQ-A(1-21) Human Insulin [Example 2] |  | 19.7%
9 | B(1-29)-B29A-VGLSSGQ-A(1-21)-A8K(N^ε-3-(mPEG2000-yl)propionyl)-A18Q Human Insulin (from UniProt P01308 25-53; P01308 90-110) (ligand) | 4.6% | 
10 | B(1-29)-B29A-VGLSSGQ-A(1-21)-A8K(N^ε-3-(mPEG2000-yl)propionyl)-A18Q Human Insulin [Example 4] |  | 4.6%
11 | B(1-29)-B29A-VGLSSGQ-A(1-22)-A18Q-A22K(N^ε-3-(mPEG2000-yl)propionyl) Human Insulin (from UniProt P01308 25-53; P01308 90-110) (ligand) | 12% | 
12 | B(1-29)-B29A-VGLSSGQ-A(1-22)-A18Q-A22K(N^ε-3-(mPEG2000-yl)propionyl) Human Insulin [Example 6] |  | 12%
13 | B(1-29)-B29A-VK(N^ε-3-(mPEG2000-yl)propionyl)LSSGQ-A(1-21)-A18Q Human Insulin (from UniProt P01308 25-53; P01308 90-110) (ligand) | 3.2% | 
14 | B(1-29)-B29A-VK(N^ε-3-(mPEG2000-yl)propionyl)LSSGQ-A(1-21)-A18Q Human Insulin [Example 5] |  | 3.2%
15 | B(1-29)-B29K(N^ε-3-(mPEG2000-yl-propionyl)-VGLSSGQ-A(1-21)-A18Q Human Insulin (from UniProt P01308 25-53; P01308 90-110) (ligand) | 5.3% | 
16 | B(1-29)-B29K(N^ε-3-(mPEG2000-yl-propionyl)-VGLSSGQ-A(1-21)-A18Q Human Insulin [Example 3] |  | 5.3%
